Data reported in patent publication US20240043495A1, “DSG2 COMPOSITIONS AND METHODS FOR THE TREATMENT OF COVID-19” (priority 2020, published 2024).

Columns and labels:
[1] = test system: human iPSC cardiomyocytes; test: CiPA multielectrode array (MEA) assay, cardiomyocyte sodium spike; assay type: cell-based; conditions: voltage (μV) at 0-96 hours; antibodies/IgG 0.5 μg/mL; lidocaine 10 μM; FIG. 5
Description: To determine the effect of anti-DSG2 antibodies in cardiomyocytes, the cardiac in vitro proarrhythmia (CiPA) assay was performed (Sager et al. Am Heart J 2014; 167:292-300; the contents of which are herein incorporated by reference in its entirety). CiPA is envisioned to consist of four components: (1) an evaluation of the effects of test agents on cardiac ion channel assays; (2) in silico modeling of the cardiac action potential based on the ion channel results to integrate the data with cardiac function; (3) experimental measurement of test agent effects in human ventricular myocytes to confirm the modeling result; and (4) scoring the results. […] The sodium spike quantified below is a measurement of the specific sodium channel current in the cardiomyocyte and is also described in Blinova K, et al. Cell Rep. […] The parameters evaluated include measuring a change in the spike in the component of electrical signal propagation (e.g. sodium spike) and cell index—a function of cell impedance and cell number. […]
Commercially available anti-DSG2 antibodies were tested in the cardiomyocyte CiPA assay. […] The voltage (μV) is measured at time intervals of 0, 1 hour, 12 hours, 24 hours, 48 hours, 72 hours, and 96 hours. […]

[2] = test system: human iPSC cardiomyocytes; test: iPSC-derived cardiomyocyte MEA assay, cell index; assay type: cell-based; conditions: antibodies 0.00005 to 5 μg/mL; lidocaine 3 to 100 μM
Description: To determine the effect of anti-DSG2 antibodies in cardiomyocytes, the cardiac in vitro proarrhythmia (CiPA) assay was performed (Sager et al. Am Heart J 2014; 167:292-300; the contents of which are herein incorporated by reference in its entirety). CiPA is envisioned to consist of four components: (1) an evaluation of the effects of test agents on cardiac ion channel assays; (2) in silico modeling of the cardiac action potential based on the ion channel results to integrate the data with cardiac function; (3) experimental measurement of test agent effects in human ventricular myocytes to confirm the modeling result; and (4) scoring the results. The multielectrode array (MEA) assay is a component of CiPA which uses human induced pluripotent stem cell (iPSC)-derived cardiomyocytes to evaluate two-dimensional excitation propagation by recording spontaneous ECG-like field potentials. The sodium spike quantified below is a measurement of the specific sodium channel current in the cardiomyocyte and is also described in Blinova K, et al. Cell Rep. 2018 Sep. 25; 24(13):3582-3592 (the contents of which are herein incorporated by reference in its entirety). […] The parameters evaluated include measuring a change in the spike in the component of electrical signal propagation (e.g. sodium spike) and cell index—a function of cell impedance and cell number. […]

Anti-DSG2 antibody [3] = test: anti-DSG2 antibody MSD assay; inhibition of the signal of anti-DSG2 antibody at 200 ng/mL (control)
Anti-DSG2 antibody [4] = test: anti-DSG2 antibody MSD assay; inhibition of the signal of anti-DSG2 antibody at 1000 ng/mL (control)
[5] = test system: anti-DSG2 antibodies in sera of post-COVID-19 patients; test: Electrochemical immunoassay: blocking of post-COVID-19 patient sera binding to the DSG2 extracellular domain; parameters: species or system human; conditions: fusion polypeptide 10 μg/mL, post-COVID-19 patient sera 10% (v/v), FIG. 3
Description: DSG2 fusion polypeptides were investigated for the ability to block the binding of anti-DSG2 antibodies in sera of post-COVID-19 patients to the DSG2 extracellular domain in an electrochemical immunoassay. The fusion polypeptides were added to a final concentration of 10 μg/mL and patient sera were used at a final concentration of 10% (v/v). The results are shown in the series of bar charts in FIG. 3, where the numbers 001, 002, 003, 004, 005 and 006 indicate individual post-COVID-19 patient serum samples.
In FIG. 3, the first data series from the left is for DSG2FP #1 (described above as amino acids 49-608 of SEQ ID NO:30; Linker (IEGRMD (SEQ ID NO: 28)); amino acids 100-330 of IgG1 (SEQ ID NO: 4). The second data series from the left is for DSG2(50-602)-6xHis, which is a fusion polypeptide of DSG2 amino acids 50-602 of SEQ ID NO: 1 (complete extracellular domain) to a hexahistidine peptide tag. The third data series from the left is for a combination of fusion polypeptides which includes EC1(50-155)-6xHis, a fusion of DSG2 amino acids 50-155 of SEQ ID NO: 1 (EC1) to a hexahistidine peptide tag and EC2(151-268)-6xHis, a fusion of DSG2 amino acids 151-268 of SEQ ID NO: 1 (EC2) to a hexahistidine peptide tag. The fourth data series from the left is for EA(491-602)-6xHis, a fusion of DSG2 amino acids 491-602 of SEQ ID NO: 1 (EA) to a hexahistidine peptide tag. […]

Molecule: CCN(CC)CC(=O)Nc1c(C)cccc1C [Lidocaine, lidocaine]
- effect on cardiomyocyte sodium spike [1]: dampen the sodium spike
- effect on cell index (in words) [2]: marked reduction in cell index and likely cell death

Molecule: recombinant human desmoglein-2 Fc chimera protein, CF (R&D Systems) (Fc fusion)
- % inhibition (Anti-DSG2 antibody [3]): 63.8%
- % inhibition (Anti-DSG2 antibody [4]): 88.4%

B1: DSG2(50-602)-6xHis: fusion polypeptide of DSG2 amino acids 50-602 of SEQ ID NO: 1 (complete extracellular domain) to a hexahistidine peptide tag (protein, listed as Homo sapiens)
chain: AWITAPVALREGEDLSKKNPIAKIHSDLAEERGLKITYKYTGKGITEPPFGIFVFNKDTGELNVTSILDREETPFFLLTGYALDARGNNVEKPLELRIKVLDINDNEPVFTQDVFVGSVEELSAAHTLVMKINATDADEPNTLNSKISYRIVSLEPAYPPVFYLNKDTGEIYTTSVTLDREEHSSYTLTVEARDGNGEVTDKPVKQAQVQIRILDVNDNIPVVENKVLEGMVEENQVNVEVTRIKVFDADEIGSDNWLANFTFASGNEGGYFHIETDAQTNEGIVTLIKEVDYEEMKNLDFSVIVANKAAFHKSIRSKYKPTPIPIKVKVKNVKEGIHFKSSVISIYVSESMDRSSKGQIIGNFQAFDEDTGLPAHARYVKLEDRDNWISVDSVTSEIKLAKLPDFESRYVQNGTYTVKIVAISEDYPRKTITGTVLINVEDINDNCPTLIEPVQTICHDAEYVNVTAEDLDGHPNSGPFSFSVIDKPPGMAEKWKIARQESTSVLLQQSEKKLGRSEIQFLISDNQGFSCPEKQVLTLTVCECLHGSGCREA
modifications: C-terminal hexahistidine tag
- blocking activity (% inhibition) ([5]; 100% inhibition = complete blocking): at least 70%

B2: EA(491-602)-6xHis: fusion of DSG2 amino acids 491-602 of SEQ ID NO: 1 (EA) to a hexahistidine peptide tag (protein, listed as Homo sapiens)
chain: DINDNCPTLIEPVQTICHDAEYVNVTAEDLDGHPNSGPFSFSVIDKPPGMAEKWKIARQESTSVLLQQSEKKLGRSEIQFLISDNQGFSCPEKQVLTLTVCECLHGSGCREA
modifications: C-terminal 6xHis tag
- blocking activity (in words) [5]: some effectiveness in blocking activity
